Three molecules from patent US20150218281A1 (Ablynx, published 2015) can be followed below.

Assay [1] concerns the target T1, biotinylated hOX40L (R&D Systems, biotinylated in house) (human, UniProt P23510 51-183, biotinylated with Sulfo-NHS-LC-Biotin, sites not stated).
T1 construct: same bought protein as m10, biotinylated; also called biotinylated OX40L
T1 sequence: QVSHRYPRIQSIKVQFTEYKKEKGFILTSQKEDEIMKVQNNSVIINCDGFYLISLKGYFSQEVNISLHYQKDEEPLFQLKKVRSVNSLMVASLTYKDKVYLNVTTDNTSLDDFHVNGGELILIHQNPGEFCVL
Description: hOX40L/hOX40 AlphaScreen, assay 2, heated at Tm+10 C. A general note: In Alpha technology, singlet oxygen from a donor bead excites a nearby acceptor bead.

Assay [2] addresses T1, biotinylated hOX40L (R&D Systems, …). Description: hOX40L/hOX40 AlphaScreen, assay 2, native. The protocol: (§1) Next, streptavidin donor beads were added and incubated for an additional 1 hour. Fluorescence was measured by reading plates on the EnVision Multilabel Plate Reader using an excitation wavelength of 680 nm and an emission wavelength of 520 nm.
(§2) In the TSA assay, Nanobodies were diluted to a concentration of 0.2 mg/ml and melting temperature (Tm) was determined at different pH by stepwise increase in temperature in presence of Sypro Orange, a dye that binds to […] residues that become exposed upon unfolding of the protein, using the Lightcycler (Roche) for detection. […] In SEC analysis, the Nanobodies were analyzed on a Phenomenex matrix to allow detection of multimers, aggregates or ‘stickyness’.

The target in assay [3] is T2, recombinant human OX40L (extracellular domain, R&D Systems) (human, UniProt P23510 51-183).
T2 sequence: T1 sequence
Description: cell-based or functional assay.

Assay [4] addresses T1, biotinylated hOX40L (R&D Systems, …). Description: hOX40L/hOX40 AlphaScreen, assay 1, native. The procedure: Next, streptavidin donor beads were added and incubated for an additional 1 hour. Fluorescence was measured by reading plates on the EnVision Multilabel Plate Reader using an excitation wavelength of 680 nm and an emission wavelength of 520 nm. […]
For assay [5], the target named is T3, hCD30L (human, UniProt P32971 63-234).
T3 sequence (looked up): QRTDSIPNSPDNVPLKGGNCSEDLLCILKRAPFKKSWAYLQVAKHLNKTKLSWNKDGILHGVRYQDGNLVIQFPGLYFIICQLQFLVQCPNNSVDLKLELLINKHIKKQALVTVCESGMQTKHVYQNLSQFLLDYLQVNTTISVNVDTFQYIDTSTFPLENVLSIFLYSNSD
Description: competition ELISA on neutravidin captured biotinylated hOX40L. The protocol:
(§3) The binding of OX40L blocking Nanobodies to other TNF family members was tested in a competition ELISA.
(§4) Detection was done using sTMB (SDT Reagents, Baesweiler, Germany), the reaction was stopped with 1M HCl and absorbance was determined at 450 nm.
In general terms: ELISA stands for enzyme-linked immunosorbent assay.

Assay [6] deals with T4, hCD40L (human, UniProt P29965 113-261).
T4 sequence (looked up): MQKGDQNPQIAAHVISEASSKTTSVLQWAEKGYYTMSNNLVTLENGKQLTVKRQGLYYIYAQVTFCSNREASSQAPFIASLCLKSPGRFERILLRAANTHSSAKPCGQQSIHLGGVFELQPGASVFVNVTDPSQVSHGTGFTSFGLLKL
The description is as above. The procedure:
as §3, §4

In assay [7] the target is T5, hTNF-alpha (human, UniProt P01375 77-233). Described as above. The procedure:
as §3, §4

The target in assay [8] is T6, human tumor necrosis factor-related apoptosis inducing ligand (human, UniProt P50591 114-281).
T6 construct: also called hTRAIL; TRAIL
Described as above. The protocol:
as §3, §4

Assay [9] concerns the target T7, human Receptor Activator for Nuclear Factor kappa B Ligand (human, UniProt O14788 143-317, limits assumed).
T7 construct: also called hRANKL; RANKL
T7 sequence (looked up): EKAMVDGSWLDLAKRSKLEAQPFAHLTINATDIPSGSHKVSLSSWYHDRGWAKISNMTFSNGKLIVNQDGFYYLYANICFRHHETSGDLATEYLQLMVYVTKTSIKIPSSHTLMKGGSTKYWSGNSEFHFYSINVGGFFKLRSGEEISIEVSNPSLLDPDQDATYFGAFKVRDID
The assay is described as above. The protocol:
as §3, §4

Assay [10] has as its target T1, biotinylated hOX40L (R&D Systems, …). Description: hOX40L/hOX40 AlphaScreen, sample heated 1 min at Tm+10 C. The protocol: as §1, §2
The target is the same in assay [11]. Put plainly: hOX40L/hOX40 AlphaScreen, native sample. The protocol:
as §1, §2

Assay [12] concerns the target T3, hCD30L. Put plainly: competition ELISA: fixed concentration of OX40L01E07 pre-incubated with a concentration series of the competitor, then added to biotinylated hOX40L captured on neutravidin; OD450nm. The protocol: as §3, §4
Assay [13] deals with T4, hCD40L. The description is as above. The procedure:
as §3, §4

The target in assay [14] is T5, hTNF-alpha. The assay is described as above. The protocol:
as §3, §4

Assay [15] addresses T6, human tumor necrosis factor-related …. Described as above. The protocol: as §3, §4
Assay [16] concerns the target T7, human Receptor Activator for Nuclear …. Described as above. The procedure: as §3, §4

T5 sequence (P01375 77-233 limits assumed): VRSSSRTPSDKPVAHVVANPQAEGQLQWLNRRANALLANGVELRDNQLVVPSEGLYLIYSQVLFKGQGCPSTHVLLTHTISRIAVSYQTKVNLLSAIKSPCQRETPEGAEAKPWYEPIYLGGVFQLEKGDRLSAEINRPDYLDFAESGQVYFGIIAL
T6 sequence (P50591 114-281 limits assumed): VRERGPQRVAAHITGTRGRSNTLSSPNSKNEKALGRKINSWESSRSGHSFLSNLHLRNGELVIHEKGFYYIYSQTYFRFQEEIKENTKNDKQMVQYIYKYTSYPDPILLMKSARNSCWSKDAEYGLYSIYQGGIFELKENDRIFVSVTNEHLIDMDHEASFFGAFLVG

B1: OX40L15B07 (VHH)
VHH: EVQLVESGGGLVQAGGSLRLSCAASRSIGRLDRMGWYRHRTGEPRELVATITGGSSINYGDFVKGRFTISIDNAKNTVYLQMNNLKPEDTAVYYCNFNKYVTSRDTWGQGTQVTVSS
notes: monovalent Nanobody from E. coli; not shown: C-terminal c-myc and His6 tag
Turning to B1, the IC50 – broadly, the concentration needed to halve the response being measured – was found to be 0.103 nM in assay [1], 0.066 nM in [2] and 0.102 nM in assay [4]. For the same molecule, the “IC50, T cell assay with rec. hOX40L” value in assay [3] was found to be 10 nM. Also, the binding result (in the assay with hCD30L [5]; with hCD40L [6]; with hTNF-alpha [7]; in assay [8]; in [9]) was “no binding (tested: starting from 100 fold molar excess)” each time.

B2: OX40L01B11 (VHH)
VHH: EVQLVESGGGLVQAGGSLRLSCVASGRSFSTYIMGWFRQAPGKEREFVATISRSGITTRSADSVKGRFTISRDNAKNTVYLQMNSLKPEDTAVYYCAAGPYVEQTLGLYQTLGPWDYWGQGTQVTVSS
notes: as for B1
For the molecule B2, the values for the IC50 in [10] and in [11] were 0.6 nM and 0.54 nM, respectively. In addition, the binding result (with hCD30L [5]; with hCD40L [6]; with hTNF-alpha [7]; in assay [8]; in assay [9]) was “no binding (tested: starting from 100 fold molar excess)” in each case.

B3: OX40L01E07 (VHH)
VHH: EVQLVESGGGLVQAGGSLRLSCAASGRTFSSIYAKGWFRQAPGKEREFVAAISRSGRSTSYADSVKGRFTISRDNAKNTVYLQMNSLKPEDTAVYYCAAVGGATTVTASEWDYWGLGTQVTVSS
notes: as for B1
As for B3, the IC50 in assay [10] and in [11] was 0.1 nM in each case. The binding result (with hCD30L [12]; with hCD40L [13]; with hTNF-alpha [14]; in assay [15]; in assay [16]) was “no binding” throughout.
